Laboratory results published in paper PMC8511506 (2021).
Values belong to the binder of their own block, whether it stands above or below them.

Biological target: Ubiquitin (UniProt P0CG47 1-76)
Assay: ITC

Kd: 136 µM
B1: CYLD CAP-Gly2 (aa 226-313) (domain or fragment)
chain: ELPPLEINSRVSLKVGETIESGTVIFCDVLPGKESLGYFVGVDMDNPIGNWDGRFDGVQLCSFACVESTILLHINDIIPALSESVTQE

Kd: 319 µM
B2: CYLD CAP-Gly3 (aa 460-582) (domain or fragment)
chain: LAMPPGNSHGLEVGSLAEVKENPPFYGVIRWIGQPPGLNEVLAGLELEDECAGCTDGTFRGTRYFTCALKKALFVKLKSCRPDSRFASLQPVSNQIERCNSLAFGGYLSEVVEENTPPKMEKE
